This is an account of results in patent publication CN115925884A (SUN YAT SEN UNIV CANCER CENTER SUN YAT SEN UNIV AFFILIATED …, dated 2023).

For the assay, the target named is T1, EBV gB重组蛋白 (recombinant EB virus gB protein with C-terminal 6xHis tag) (EB病毒 (Epstein-Barr virus), UniProt P0C762 23-683, biotin label in the BLI assay (gB-Biotin), site not stated).
T1 construct: Biotinylated for BLI; unlabelled in the Western blot; also called gB蛋白; gB抗原
T1 chain: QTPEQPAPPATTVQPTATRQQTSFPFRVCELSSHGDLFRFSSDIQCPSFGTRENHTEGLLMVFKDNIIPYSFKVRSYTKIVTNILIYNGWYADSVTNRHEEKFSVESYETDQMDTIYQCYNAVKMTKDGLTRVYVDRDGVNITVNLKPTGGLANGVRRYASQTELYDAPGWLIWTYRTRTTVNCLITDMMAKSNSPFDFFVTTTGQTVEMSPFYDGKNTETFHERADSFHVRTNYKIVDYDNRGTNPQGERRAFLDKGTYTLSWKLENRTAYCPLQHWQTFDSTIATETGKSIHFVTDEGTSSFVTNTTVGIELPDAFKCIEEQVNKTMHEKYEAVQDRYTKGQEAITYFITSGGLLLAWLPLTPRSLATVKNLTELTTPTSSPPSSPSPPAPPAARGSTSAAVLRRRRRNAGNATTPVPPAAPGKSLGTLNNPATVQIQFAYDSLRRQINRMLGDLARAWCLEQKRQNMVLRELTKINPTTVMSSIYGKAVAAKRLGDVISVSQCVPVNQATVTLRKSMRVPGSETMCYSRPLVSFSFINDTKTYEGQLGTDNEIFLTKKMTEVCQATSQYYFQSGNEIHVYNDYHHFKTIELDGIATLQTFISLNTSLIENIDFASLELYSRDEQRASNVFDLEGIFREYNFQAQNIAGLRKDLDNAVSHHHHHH
Nature of the assay: BLI, biotinylated gB on SA biosensor, 0-200 nM antibody in solution. For orientation: In BLI a coated tip is dipped into the sample, and binding shifts an interference pattern.

Usually Kd stands for the constant that tells how readily two partners part at equilibrium.

B1: 4F10抗体 (monoclonal antibody against EB virus gB antigen) (antibody, V domains shown)
VH: QITLKESGAEMKKPGSSVKVSCKSSDTFKSYGIGWVRQAPGQGLEWMGGVIPVTGTRSYPQKFQGRVTITADESTSTAYMELSRLRSEDTAVYYCGRYMSYLYGMDVWGQGTTVTVSS
VL: DIVLTQTPLSSPVTLGQPASISCRSSQGLVYSDGDTYLNWFQQRPGQSPRRLIYKVSNRDSGVPDRFSGSGSGTDFTLRISRVEAEDVGVYYCMQGAHWPPTFGQGTKLEIK
notes: For flow cytometry the antibody carried a '403' fluorescent label; also called 抗体4F10
Turning to B1, the Kd came to 1 pM.
